This note sets out measurements from patent US12258605B2, “Alkane oxidation by modified hydroxylases” (The California Institute of Technology, priority 2005, dated 2025).

Holding throughout (assay type): biochemical
Data set [1] in a line: Reactions on alkanes, total turnovers (Table 18): hexane. Particulars: hexane (6 C atoms); for % rel. act.: TTN normalized to the highest value of the variant's series; for TTN: total turnovers, standardized reaction conditions. The protocol:
(§1) Reactions on alkanes. Reactions with alkanes from pentane to decane were carried out at 3 mL-scale using 100 mM KPi pH 8.0 buffer containing 2% ethanol (to allow alkane solubilization) and purified protein. 2.5 mL KPi buffer were added with 60 μL of 90 mM alkane solution in ethanol (final conc.=1.8 mM), 150 μL enzyme solution at 1 μM (final conc.=50 nM), and 300 μL NADPH regeneration solution (100 units/mL isocitrate dehydrogenase, 70 mg/mL isocitrate, 1.5 mg/ml NADP^+). Vials were sealed and stirred for 24 hours at 4° C. 1 mL-aliquot of the reaction was removed, added with 10 μl internal standard (25 mM 1-bromohexane in ethanol), and extracted with 200 μl chloroform (30 sec vortexing, 1 min centrifugation at 10000 g). The organic phase was removed and analyzed by gas chromatography. Reactions with ethane, propane, and butane were carried out as described for longer alkanes with the only difference that alkane-saturated KPi buffer was used. Propane reactions with variants from HL5 and L9 libraries were performed on 1 mL-scale reaction using 20 nM enzyme to reduce oxygen limitation. Propane and butane reactions were analyzed by direct injection of reaction solution on the GC using 1-pentanol as internal standard. Ethane reaction products were functionalized (see below) and analyzed by GC using 1-butanol as internal standard. All measurements were performed in triplicate.
(§2) Products from alkane reactions were identified and quantified by gas chromatography using authentic standards and calibration curves with internal standards. For the reactions with alkanes from pentane to decane, GC analyses were carried out using a Shimadzu GC-17A gas chromatograph, Agilent HP5 column (30 m×0.32 mm×0.1 μm film), 1 μL injection, FID detector, and the following separation program: 250° C. inlet, 250° C. detector, 50° C. oven for 3 min, 5° C./min gradient to 100° C., 25° C./min gradient to 230° C., and 230° C. for 3 min. For butane and propane (TTN) reactions, GC analyses were carried out using a Hewlett-Packard 5890 Series II Plus gas chromatograph, Supelco SPB-1 column (60 m×0.52 mm×0.5 μm film), 0.5 μL injection, FID detector, and the following separation program: 250° C. inlet, 275° C. detector, 80° C. oven for 2 min, 10° C./min gradient to 110° C., 25° C./min gradient to 275° C., and 275° C. for 2.5 min. For ethane and propane (rate) reactions, analysis of reaction mixtures was carried out by derivatization to alkyl nitrites followed by GC-ECD analysis. For laurate, reaction product analysis was carried out by derivatization with N-methyl-N-trimethylsilylheptafluorobutyramide followed by extraction with hexane. Organic solutions were analyzed by FID-GC.
(§3) TTNs for each variant-substrate pair were determined using standardized reaction conditions (identical enzyme and substrate concentration, incubation time, cofactor regeneration system) (Table 18). TTN values were used to assess performance because TTN is a cumulative measure of both catalytic and coupling efficiency and because mutants were selected based on improvement in this property. To facilitate comparison among the variants, TTNs were normalized to the highest value in the series (MTN=Maximal Turnover Number) and plotted for the increasing-sized substrates (FIG. 38). A gradual shift of the enzyme's substrate preference during laboratory evolution is evident from these profiles. The marginal activity of wild-type BM3 on these substrates (MTN=150) is restricted to the long-chain alkanes, where it is a promiscuous function of BM3's high C12-C20 fatty acid hydroxylase activity. In the first evolutionary intermediates, substrate preference centers on medium-chain alkanes […], reflecting their selection for activity on octane. In 35E11, selected for activity on propane, preference still centers on C6-C8 alkanes but now extends towards the shorter ones, including propane. Propane activity becomes prevalent with the transition from variant ETS8 to 19A12. […]

Data set [2] in a line: Reactions on alkanes, total turnovers (Table 18): ethane. The conditions noted are these: ethane (2 C atoms); for % rel. act.: TTN normalized to the highest value of the variant's series; for TTN: total turnovers, standardized reaction conditions. The procedure: as §1, §2, §3
Data set [3] can be described thus: Reactions on alkanes, total turnovers (Table 18): pentane. The conditions noted are these: pentane (5 C atoms); for % rel. act.: TTN normalized to the highest value of the variant's series; for TTN: total turnovers, standardized reaction conditions. The protocol:
as §1, §2, §3

The nature of data set [4]: Reactions on alkanes, total turnovers (Table 18): nonane. The conditions noted are these: nonane (9 C atoms); for % rel. act.: TTN normalized to the highest value of the variant's series; for TTN: total turnovers, standardized reaction conditions. The protocol: as §1, §2, §3
The nature of data set [5]: Reactions on alkanes, total turnovers (Table 18): decane. Particulars: decane (10 C atoms); for % rel. act.: TTN normalized to the highest value of the variant's series; for TTN: total turnovers, standardized reaction conditions. The procedure:
as §1, §2, §3

A short description of data set [6]: Reactions on alkanes, total turnovers (Table 18): octane. The conditions noted are these: octane (8 C atoms); for % rel. act.: TTN normalized to the highest value of the variant's series; for TTN: total turnovers, standardized reaction conditions. The protocol: as §1, §2, §3
Data set [7] is described as follows: Kinetic constants for n-alkanes: octane. The procedure: Rate measurements. Initial rates of product formation were determined at 25° C. in 100 mM KPi pH 8.0 buffer using purified protein (100 nM) and a substrate concentration of 1.6 mM. In a 5 mL-vial, 20 μL of alkane solution (in ethanol) were dissolved in 400 μL KPi buffer, to which 500 μL enzyme solution at 100-200 nM was added. Reaction was initiated by adding 100 μL of 5 mM NADPH solution, followed by stirring at 300 rpm for 1 minute, and quenched by adding 200 μL chloroform and stirring at 800 rpm for 10 sec. Solutions were transferred to an Eppendorf tube, to which internal standard (10 μL 25 mM 1-bromohexane in ethanol) was added. Tubes were vortexed for 10 sec and centrifuged for 30 sec at 10,000 g. Organic phase was removed and analyzed by GC. For propane, reactions were carried out in a 5 mL-scale using 100-400 nM purified enzyme, propane-saturated buffer (propane concentration≈1.6 mM) and a final NADPH concentration of 500 μM. Reactions were stopped by addition of 200 μL H2SO4 conc. and analyzed by derivatization to alkyl nitrites followed by GC-ECD analysis as described below.
as §2
To further investigate the evolution of substrate specificity, kinetic constants for the C5 to C8 alkanes were determined from Michaelis-Menten plots (Table 19). The preference of 35E11 and its evolutionary predecessors for medium-chain alkanes is indicated by their high C8/C5 specificities ((kcat/Km)8/(kcat/Km)5˜100), where Km appears to be the major contributing factor. C8/C5 specificity decreases to ˜5 in the immediate precursors of P450PMO and then switches altogether to the smaller alkane, becoming 0.4 in P450PMO. In P450PMO, catalytic efficiency is highest on propane and decreases along the alkane series, driven by decreasing kcat.

B1: Wild-type BM-3: wild-type cytochrome P450 BM-3 from Bacillus megaterium, SEQ ID NO:1 (protein, listed as Bacillus megaterium)
chain: TIKEMPQPKTFGELKNLPLLNTDKPVQALMKIADELGEIFKFEAPGRVTRYLSSQRLIKEACDESRFDKNLSQALKFVRDFAGDGLFTSWTHEKNWKKAHNILLPSFSQQAMKGYHAMMVDIAVQLVQKWERLNADEHIEVPEDMTRLTLDTIGLCGFNYRFNSFYRDQPHPFITSMVRALDEAMNKLQRANPDDPAYDENKRQFQEDIKVMNDLVDKIIADRKASGEQSDDLLTHMLNGKDPETGEPLDDENIRYQIITFLIAGHETTSGLLSFALYFLVKNPHVLQKAAEEAARVLVDPVPSYKQVKQLKYVGMVLNEALRLWPTAPAFSLYAKEDTVLGGEYPLEKGDELMVLIPQLHRDKTIWGDDVEEFRPERFENPSAIPQHAFKPFGNGQRACIGQQFALHEATLVLGMMLKHFDFEDHTNYELDIKETLTLKPEGFVVKAKSKKIPLGGIPSPSTEQSAKKVRKKAENAHNTPLLVLYGSNMGTAEGTARDLADIAMSKGFAPQVATLDSHAGNLPREGAVLIVTASYNGHPPDNAKQFVDWLDQASADEVKGVRYSVFGCGDKNWATTYQKVPAFIDETLAAKGAENIADRGEADASDDFEGTYEEWREHMWSDVAAYFNLDIENSEDNKSTLSLQFVDSAADMPLAKMHGAFSTNVVASKELQQPGSARSTRHLEIELPKEASYQEGDHLGVIPRNYEGIVNRVTARFGLDASQQIRLEAEEEKLAHLPLAKTVSVEELLQYVELQDPVTRTQLRAMAAKTVCPPHKVELEALLEKQAYKEQVLAKRLTMLELLEKYPACEMKFSEFIALLPSIRPRYYSISSSPRVDEKQASITVSVVSGEAWSGYGEYKGIASNYLAELQEGDTITCFISTPQSEFTLPKDPETPLIMVGPGTGVAPFRGFVQARKQLKEQGQSLGEAHLYFGCRSPHEDYLYQEELENAQSEGIITLHTAFSRMPNQPKTYVQHVMEQDGKKLIELLDQGAHFYICGDGSQMAPAVEATLMKSYADVHQVSEADARLWLQQLEEKGRYAKDVWAG
On to B1, for which the “% rel. act.” value was 6.3% in data set [1]; 0.0% in data set [2]; 0.0% in data set [3]; 68.8% in data set [4]; 100.0% in data set [5]; 18.8% in data set [6]. The TTN is 10 ± 4 in data set [1]; 0 in data set [2]; 0 in data set [3]; 110 ± 10 in data set [4]; 160 ± 95 in data set [5]; 30 ± 42 in data set [6]. Further, the Km in data set [7] is > 5000 µM. For the same molecule, in data set [7], the kcat was <0.083 s⁻¹.

B2: 35-E11: P450 BM-3 variant, SEQ ID NO:7: 53-5H substitutions plus E464G and I710T (protein)
chain: TIKEMPQPKTFGELKNLPLLNTDKPVQALMKIADELGEIFKFEAPGCVTRYLSSQRLIKEACDESRFDKNLSQALKFFRDFSGDGLFTSWTHEINWKKAHNILLPSFSQQAMKGYHAMMVDIAVQLVQKWERLNADEHIEVSEDMTRLTLDTIGLCGFNYRFNSFYRDQPHPFIISMVRALDEVMNKLQRANPDDPAYDENKRQCQEDIKVMNDLVDKIIADRKARGEQSDDLLTQMLNGKDPETGEPLDDGNISYQIITFLIAGHETTSGLLSFALYFLVKNPHVLQKVVEEAARVLVDPVPSYKQVKQLKYVGMVLNEALRLWPTFPAFSLYAKEDTVLGGEYPLEKGDEVMVLIPQLHRDKTIWGDDVEEFRPERFENPSAIPQHAFKPFGNGQRACIGQQFALHEATLVLGMMLKHFDFEDHTNYELDIKETLTLKPEGFVVKAKSKKIPLGGIPSPSTGQSAKKVRKKAENAHNTPLLVLYGSNMGTAEGTARDLADIAMSKGFAPQVATLDSHAGNLPREGAVLIVTASYNGHPPDNAKQFVDWLDQASADEVKGVRYSVFGCGDKNWATTYQKVPAFIDETLAAKGAENIADRGEADASDDFEGTYEEWREHMWSDVAAYFNLDIENSEDNKSTLSLQFVDSAADMPLAKMHGAFSTNVVASKELQQPGSARSTRHLEIELPKEASYQEGDHLGVIPRNYEGTVNRVTARFGLDASQQIRLEAEEEKLAHLPLAKTVSVEELLQYVELQDPVTRTQLRAMAAKTVCPPHKVELEALLEKQAYKEQVLAKRLTMLELLEKYPACEMKFSEFIALLPSIRPRYYSISSSPRVDEKQASITVSVVSGEAWSGYGEYKGIASNYLAELQEGDTITCFISTPQSEFTLPKDPETPLIMVGPGTGVAPFRGFVQARKQLKEQGQSLGEAHLYFGCRSPHEDYLYQEELENAQSEGIITLHTAFSRMPNQPKTYVQHVMEQDGKKLIELLDQGAHFYICGDGSQMAPAVEATLMKSYADVHQVSEADARLWLQQLEEKGRYAKDVWAG
modifications: mutant P450 35-E11 protein sequence
As for B2, the “% rel. act.” value is 100.0% in data set [1]; 3.5% in data set [2]; 75.6% in data set [3]; 52.6% in data set [4]; 13.5% in data set [5]; 93.7% in data set [6]. Moreover, the TTN in data set [1] is reported as 6350 ± 384; in data set [2] it was 220 ± 30; in data set [3] it was 4800 ± 174; in data set [4] it was 3350 ± 133; in data set [5], 860 ± 223; in data set [6] it was 5950 ± 323. In addition, the Km in data set [7] turned out to be 85 ± 25 µM. The kcat in data set [7] is 6.5 ± 1.58 s⁻¹.

The Km is the substrate concentration at which the rate is half of its maximum. In general, kcat refers to the number of substrate molecules converted per active site and unit of time at saturation.
